± gives the uncertainty stated by the source.
Test: self-splicing fitness, log relative to wild type (ln ratio); higher = more splicing; Tetrahymena group I intron in knt gene, E. coli kanamycin selection, DiMSum; sequences stand for … in CUCUCU…GGAGGGAAAAGUUAUCAGGCAUGCACCUGGUAGCUAGUCUUUAAACCAAUAGAUUGCAUCGGUUUAAAAGGCAAGACCGUCAAAUUGCGGGAAAGGGGUCAACAGCCGUUCAGUACCAAGUCUCAGGGGAAACUUUGAGAUGGCCUUGCAAAGGGUAUGGUAAUAAGCUGACGGACAUGGUCCUAACCACGCAGCCAAGUCCUAAGUCAACAGAUCUUCUGUUGAUAUGGAUGCAGUUCACAGACUAAAUGUCGGUCGGGGAAGAUGUAUUCUUCUCAUAAGAUAUAGUCGGACCUCUCCUUAAUGGGAGCUAGCGGAUGAAGUGAUGCAACACUGGAGCCGCUGGGAACUAAUUUGUAUGCGAAAGUAUAUUGAUUAGUUUUGGAGUACUCGUGGUCG
Method in brief: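 Library with all eight P1ex-region intron nucleotides randomised, intron inside the knt kanamycin-resistance gene on pET-22b(+), in E. coli BL21(DE3). Cells grew overnight at 37°C or 30°C on LB agar with or without 25 μg/mL kanamycin (plus 100 μg/mL carbenicillin, 50 μM IPTG, 0.2% rhamnose), in six replicate transformations. Pooled colonies were amplicon-sequenced on Illumina HiSeq 2500. DiMSum fitness is the error-weighted combination of wild-type-normalised replicate fold changes, kanamycin versus none.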

Row | Sequence | self-splicing fitness (ln) (30 °C) | self-splicing fitness (ln) (37 °C)
1 | AGCCAGCAAUAUUACGAUUG | -4.59 ± 0.3 | -0.923 ± 0.19
2 | AGCCAGCAAUAUUACGAUUU | -2.3 ± 0.1 | -1.24 ± 0.11
3 | AGCCAGCAAUAUUACGCACG | -2.34 ± 0.11 | -0.605 ± 0.12
4 | AGCCAGCAAUAUUACGCCAG | -3.96 ± 0.27 | -2.23 ± 0.16
5 | AGCCAGCAAUAUUACGCCGG |  | -3.39 ± 0.27
6 | AGCCAGCAAUAUUACGCCUC |  | -0.728 ± 0.44
7 | AGCCAGCAAUAUUACGGAAU | -1.76 ± 0.12 | -1.52 ± 0.14
8 | AGCCAGCAAUAUUACGGAGA | -2.57 ± 0.16 | -1.34 ± 0.15
9 | AGCCAGCAAUAUUACGGCAC | -1.26 ± 0.13 | -0.402 ± 0.15
10 | AGCCAGCAAUAUUACGGCCA | -0.79 ± 0.089 | -0.322 ± 0.11
11 | AGCCAGCAAUAUUACGGGUG | -2.15 ± 0.075 | -0.713 ± 0.085
12 | AGCCAGCAAUAUUACGGUGC | -2.49 ± 0.12 | -2.28 ± 0.17
13 | AGCCAGCAAUAUUACGGUUA | -0.713 ± 0.13 | -0.226 ± 0.11
14 | AGCCAGCAAUAUUACGUAGG | -3.77 ± 0.2 | -3.33 ± 0.24
15 | AGCCAGCAAUAUUACGUCAA | -3.18 ± 0.22 | -2.53 ± 0.21
16 | AGCCAGCAAUAUUACGUCAG | -3.58 ± 0.17 | -2.77 ± 0.23
17 | AGCCAGCAAUAUUACGUCAU | -2.29 ± 0.12 | -0.981 ± 0.15
18 | AGCCAGCAAUAUUACGUCGG | -3.89 ± 0.3 | -2.97 ± 0.32
19 | AGCCAGCAAUAUUACGUGCC | -2.96 ± 0.15 | -1.98 ± 0.14
20 | AGCGAGCAAUAUUACGAACG | -2.14 ± 0.29 | -1.5 ± 0.2
21 | AGCGAGCAAUAUUACGACCA | -1.37 ± 0.22 | -1.08 ± 0.22
22 | AGCGAGCAAUAUUACGAGAG | -3.19 ± 0.32 | -2.94 ± 0.32
23 | AGCGAGCAAUAUUACGAGGU | -3.69 ± 0.24 | -2.48 ± 0.3
24 | AGCGAGCAAUAUUACGCACC | -0.941 ± 0.45 | -0.411 ± 0.37
25 | AGCGAGCAAUAUUACGCCGU |  | -1.24 ± 0.34
26 | AGCGAGCAAUAUUACGCGCG | -4.04 ± 0.33 | -1.89 ± 0.25

Row | Sequence | self-splicing fitness (ln) (30 °C) | self-splicing fitness (ln) (37 °C)
27 | AGCGAGCAAUAUUACGGAAG | -4.34 ± 0.42 | -2.68 ± 0.29
28 | AGCGAGCAAUAUUACGGCCG | -2.6 ± 0.34 | -1.72 ± 0.26
29 | AGCGAGCAAUAUUACGGCGC | -2.72 ± 0.22 | -1.98 ± 0.2
30 | AGCGAGCAAUAUUACGGGAA |  | -1.86 ± 0.27
31 | AGCGAGCAAUAUUACGGGGA | -2.64 ± 0.35 | -1.22 ± 0.22
32 | AGCGAGCAAUAUUACGGGGG | -2.6 ± 0.33 | -2.04 ± 0.41
33 | AGCGAGCAAUAUUACGUAUC |  | -3.38 ± 0.39
34 | AGCGAGCAAUAUUACGUCUG | -2.03 ± 0.11 | -1.8 ± 0.14
35 | AGCGAGCAAUAUUACGUGAC | -3.4 ± 0.28 | 
36 | AGCGAGCAAUAUUACGUGGC | -4.97 ± 0.31 | -2.46 ± 0.2
37 | AGCGAGCAAUAUUACGUGGU | -3.2 ± 0.25 | -3.06 ± 0.22
38 | AGCGAGCAAUAUUACGUUAG | -2.38 ± 0.11 | -3.18 ± 0.27
39 | AGCGAGCAAUAUUACGUUUA |  | -1.96 ± 0.26
40 | AGCUAGCAAUAUUACGACGC | -1.63 ± 0.098 | -0.406 ± 0.13
41 | AGCUAGCAAUAUUACGACUC | -2.01 ± 0.16 | -1.24 ± 0.15
42 | AGCUAGCAAUAUUACGAGCC | -3.51 ± 0.32 | -2.5 ± 0.49
43 | AGCUAGCAAUAUUACGAGUA | -1.65 ± 0.15 | -0.618 ± 0.12
44 | AGCUAGCAAUAUUACGAGUU | -2.58 ± 0.16 | -2.45 ± 0.22
45 | AGCUAGCAAUAUUACGAUUU | -0.0195 ± 0.06 | 0.214 ± 0.086
46 | AGCUAGCAAUAUUACGCAGA | -3.4 ± 0.34 | -1.82 ± 0.18
47 | AGCUAGCAAUAUUACGCCGC | -2.36 ± 0.2 | -3.06 ± 0.47
48 | AGCUAGCAAUAUUACGCCGG | -2.94 ± 0.2 | -1.85 ± 0.34
49 | AGCUAGCAAUAUUACGCGAA | -3.09 ± 0.23 | -1.24 ± 0.22
50 | AGCUAGCAAUAUUACGCGCG | -0.92 ± 0.18 | -0.121 ± 0.17
51 | AGCUAGCAAUAUUACGCUCG | -2.6 ± 0.19 | -1.53 ± 0.17
52 | AGCUAGCAAUAUUACGGACC | -0.63 ± 0.12 | -0.00494 ± 0.17

Row | Sequence | self-splicing fitness (ln) (30 °C) | self-splicing fitness (ln) (37 °C)
53 | AGCUAGCAAUAUUACGGCCA | -0.689 ± 0.15 | 0.469 ± 0.18
54 | AGCUAGCAAUAUUACGGCUU | -3.43 ± 0.21 | -2.62 ± 0.23
55 | AGCUAGCAAUAUUACGGGCU | -3.47 ± 0.27 | -2.91 ± 0.36
56 | AGCUAGCAAUAUUACGGGGG | -3.05 ± 0.31 | -1.64 ± 0.27
57 | AGCUAGCAAUAUUACGGUCU | -0.425 ± 0.068 | 0.136 ± 0.088
58 | AGCUAGCAAUAUUACGGUGG | -2.04 ± 0.092 | -2.46 ± 0.17
59 | AGCUAGCAAUAUUACGUACU | -0.454 ± 0.095 | -0.144 ± 0.12
60 | AGCUAGCAAUAUUACGUAGU | -3.32 ± 0.12 | -2.85 ± 0.14
61 | AGCUAGCAAUAUUACGUGCU | -3.87 ± 0.35 | -2.44 ± 0.23
62 | AGCUAGCAAUAUUACGUGUU | -1.86 ± 0.14 | -2.11 ± 0.14
63 | AGCUAGCAAUAUUACGUUAC | -3.52 ± 0.27 | -1.87 ± 0.18
64 | AGCUAGCAAUAUUACGUUGG | -3.61 ± 0.19 | -2.03 ± 0.18
65 | AGGAAGCAAUAUUACGAAUC | -2.86 ± 0.25 | 
66 | AGGAAGCAAUAUUACGAAUU | -2.58 ± 0.13 | -1.45 ± 0.15
67 | AGGAAGCAAUAUUACGACCG | -0.0847 ± 0.2 | 0.135 ± 0.23
68 | AGGAAGCAAUAUUACGAGGA | -2.39 ± 0.29 | -2.32 ± 0.22
69 | AGGAAGCAAUAUUACGAGUC | -2.85 ± 0.35 | -1.61 ± 0.27
70 | AGGAAGCAAUAUUACGAUCG | -1.27 ± 0.16 | -0.489 ± 0.16
71 | AGGAAGCAAUAUUACGCACU | -0.845 ± 0.22 | -1.35 ± 0.29
72 | AGGAAGCAAUAUUACGCAUG | -3.2 ± 0.16 | -1.31 ± 0.12
73 | AGGAAGCAAUAUUACGCCAU | -3.16 ± 0.27 | -2 ± 0.38
74 | AGGAAGCAAUAUUACGCCCG | -0.151 ± 0.17 | -0.394 ± 0.2
75 | AGGAAGCAAUAUUACGCCGA | -1.95 ± 0.17 | -0.0948 ± 0.12
76 | AGGAAGCAAUAUUACGCGCC | -1.61 ± 0.29 | -0.761 ± 0.27
77 | AGGAAGCAAUAUUACGCUGA | -2.96 ± 0.23 | -1.97 ± 0.22
78 | AGGAAGCAAUAUUACGCUUU | -4.15 ± 0.39 | -2.32 ± 0.27
